B1: GCC185 C-110 (fragment of the 110 C-terminal-most amino acids of GCC185) (domain or fragment, UniProt Q8IWJ2 1575-1684, looked up)
chain: LNGLLRETEATNAILMEQIKLLKSEIRRLERNQEREKSAANLEYLKNVLLQFIFLKPGSERERLLPVINTMLQLSPEEKGKLAAVAQGEEENASRSSGWASYLHSWSGLR
B2: GCC185 C-110 I1588A/L1595A (domain or fragment, UniProt Q8IWJ2 1575-1684, looked up)
chain: LNGLLRETEATNAALMEQIKALKSEIRRLERNQEREKSAANLEYLKNVLLQFIFLKPGSERERLLPVINTMLQLSPEEKGKLAAVAQGEEENASRSSGWASYLHSWSGLR

How the values were obtained:
[1] = target: His-tagged (6×) human Rab6A (human, UniProt P20340 1-208); test: pull-down
[2] = target: the molecule itself

His-tagged (6×) human Rab6A, sequence (P20340 whole entry): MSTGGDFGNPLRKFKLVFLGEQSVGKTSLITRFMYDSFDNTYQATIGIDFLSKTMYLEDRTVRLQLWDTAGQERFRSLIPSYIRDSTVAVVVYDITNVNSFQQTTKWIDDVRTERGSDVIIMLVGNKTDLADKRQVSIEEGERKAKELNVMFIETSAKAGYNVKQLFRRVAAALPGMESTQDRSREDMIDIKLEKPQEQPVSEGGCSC

Row | Binder | binding result [1] | stoichiometry N [2]
1 | B1 | binds | –
2 | B2 | – | 2

Reference: article PMC2213607 (The Journal of Cell Biology, 2008)
